The target of assay [1] is T1, human FcγRIIIa (158F), His- and GST-tagged (human, UniProt P08637 17-208).
T1 construct: also called F158 FcγRIIIa; not shown: 6xHis and GST tags of the pTT5 vector
As to the kind of experiment: SPR. (In general: SPR reads the build-up and loss of mass on a sensor chip optically.)

Assay [2] concerns the target T2, human FcγRIIa (131R), His- and GST-tagged (human, UniProt P12318 34-217).
T2 construct: Expressed in HEK293T cells, purified by nickel chromatography; also called R131 FcγRIIa; not shown: 6xHis and GST tags of the pTT5 vector
T2 sequence (looked up): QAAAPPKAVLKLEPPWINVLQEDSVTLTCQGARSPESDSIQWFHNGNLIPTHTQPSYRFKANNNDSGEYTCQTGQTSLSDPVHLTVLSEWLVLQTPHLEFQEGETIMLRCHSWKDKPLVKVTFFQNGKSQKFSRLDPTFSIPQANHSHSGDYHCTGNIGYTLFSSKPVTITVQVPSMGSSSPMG
The assay is described as follows: SPR.

Assay [3] concerns the target T3, human FcγRI receptor protein (R&D Systems) (human, UniProt P12314 16-288).
T3 construct: also called soluble FcγRI; solFcγRI
As to the kind of experiment: SPR.

Assay [4] deals with T4, human FcγRIIIa (158V), His- and GST-tagged (human, UniProt P08637 17-208).
T4 construct: also called V158 FcγRIIIa; VIIIa; not shown: 6xHis and GST tags of the pTT5 vector
T4 sequence (P08637 17-208 F176V): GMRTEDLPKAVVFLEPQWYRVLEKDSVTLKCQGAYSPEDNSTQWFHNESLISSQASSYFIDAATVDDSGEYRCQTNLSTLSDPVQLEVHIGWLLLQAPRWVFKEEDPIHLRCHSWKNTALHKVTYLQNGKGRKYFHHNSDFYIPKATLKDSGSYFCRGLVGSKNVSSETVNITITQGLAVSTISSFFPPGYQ
As to the kind of experiment: SPR.

Assay [5] has as its target T5, human FcγRIIa (131H), His- and GST-tagged (human, UniProt P12318 34-217).
T5 construct: also called H131 FcγRIIa; HIIa; not shown: 6xHis and GST tags of the pTT5 vector
T5 sequence (looked up): T2 sequence (looked up) with R134H
The assay is described as follows: SPR.

The target of assay [6] is T6, human FcγRIIb receptor protein (R&D Systems) (human, UniProt P31994 46-217).
T6 construct: Bought protein injected over captured antibody in Biacore; also called CD32b
T6 sequence (looked up): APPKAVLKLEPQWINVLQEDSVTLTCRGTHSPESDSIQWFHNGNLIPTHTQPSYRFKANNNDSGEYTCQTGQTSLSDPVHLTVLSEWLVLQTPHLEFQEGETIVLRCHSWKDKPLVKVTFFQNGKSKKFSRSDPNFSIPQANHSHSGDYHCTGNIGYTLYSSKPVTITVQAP
As to the kind of experiment: SPR.

The target of assay [7] is T7, cynoFcγRIIb (Macaca fascicularis, UniProt A0A140HDP4).
T7 construct: extracellular region, C-terminal His- and GST-tag; also called cynomolgus monkey FcγRIIb
T7 sequence (receptor extracellular region): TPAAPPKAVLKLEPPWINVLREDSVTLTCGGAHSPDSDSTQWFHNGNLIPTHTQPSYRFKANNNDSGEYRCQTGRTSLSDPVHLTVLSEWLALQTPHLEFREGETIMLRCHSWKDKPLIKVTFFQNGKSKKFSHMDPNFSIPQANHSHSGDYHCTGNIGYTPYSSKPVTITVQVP
As to the kind of experiment: SPR, off-rate.

The target of assay [8] is T8, mFcγRIIb (Mus musculus, UniProt P08101).
T8 construct: extracellular region, C-terminal His- and GST-tag; also called mouse FcγRII
T8 sequence (receptor extracellular region, looked up): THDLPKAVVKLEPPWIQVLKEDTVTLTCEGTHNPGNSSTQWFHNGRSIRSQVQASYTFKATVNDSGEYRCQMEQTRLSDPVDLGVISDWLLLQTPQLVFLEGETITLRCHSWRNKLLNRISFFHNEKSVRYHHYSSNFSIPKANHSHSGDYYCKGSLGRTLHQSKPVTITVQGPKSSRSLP
As to the kind of experiment: SPR, off-rate.

The target in assay [9] is T9, cynoFcγRIIIa (Macaca fascicularis, UniProt Q8SPW2).
T9 construct: extracellular region, C-terminal His- and GST-tag; also called cynomolgus monkey FcγRIIIa
T9 sequence (Q8SPW2 17-208): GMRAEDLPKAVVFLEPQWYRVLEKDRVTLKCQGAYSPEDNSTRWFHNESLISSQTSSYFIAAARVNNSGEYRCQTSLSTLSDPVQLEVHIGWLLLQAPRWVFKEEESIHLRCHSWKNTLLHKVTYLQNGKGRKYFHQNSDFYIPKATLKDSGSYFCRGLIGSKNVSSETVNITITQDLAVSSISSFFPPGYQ
As to the kind of experiment: SPR, off-rate.

Assay [10] concerns the target T10, mFcγRIV.
T10 construct: also called mouse FcγRIV; not shown: C-terminal His and GST tags (named only on our card)
T10 chain: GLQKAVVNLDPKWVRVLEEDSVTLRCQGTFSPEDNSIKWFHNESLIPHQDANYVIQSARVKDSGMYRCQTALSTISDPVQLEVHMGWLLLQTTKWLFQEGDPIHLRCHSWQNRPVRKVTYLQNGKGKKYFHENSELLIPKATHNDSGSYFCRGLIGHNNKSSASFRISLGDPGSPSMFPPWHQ
The assay is described as follows: SPR, off-rate.

The target of assay [11] is T7, cynoFcγRIIb. As to the kind of experiment: SPR.
The target in assay [12] is T8, mFcγRIIb. As to the kind of experiment: SPR.
Assay [13] deals with T9, cynoFcγRIIIa. The assay is described as follows: SPR.
In assay [14] the target is T10, mFcγRIV. As to the kind of experiment: SPR.
Assay [15] has as its target T7, cynoFcγRIIb. The assay is described as follows: SPR, Kd. As for the experimental part:
Variants were screened for receptor affinity using Biacore™ technology, also referred to as Biacore herein, a surface plasmon resonance (SPR) based technology for studying biomolecular interactions in real time. SPR measurements were performed using a Biacore 3000 instrument (Biacore, Piscataway, N.J.). A protein A/G (Pierce Biotechnology) CM5 biosensor chip (Biacore) was generated using a standard primary amine coupling protocol. All measurements were performed using HBS-EP buffer (10 mM HEPES pH 7.4, 0.15 M NaCl, 3 mM EDTA, 0.005% vol/vol surfactant P20, Biacore). Antibodies at 20 nM or 50 nM in HBS-EP buffer were immobilized on the protein A/G surface and FcγRs were injected. After each cycle, the surface was regenerated by injecting glycine buffer (10 mM, pH 1.5). Data were processed by zeroing time and response before the injection of FcγR and by subtracting appropriate nonspecific signals (response of reference channel and injection of running buffer). Kinetic analyses were performed by global fitting of binding data with a 1:1 Langmuir binding model using BIAevaluation software (Biacore).
Variant antibodies were tested for their affinity to mouse or cynologous monkey FcγRs using Biacore SPR as described above. Specifically, antibodies were first immobilized on a protein A/G chip to high density, and then followed by injections of the extracellular domain of the mouse or cynologous monkey FcγR of interest. Both association and dissociation phases were tracked in real time using the Biacore technology.

Numbering of substitutions follows the chain as printed. Numbers in names are those of the source.

The values that follow come from patent US20130315910A1 (Xencor, published 2013).

As a reminder, the Kd is the constant that tells how readily two partners part at equilibrium.
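Throughout, for Fold vs WT IgG1 (off-rate): fold improvement over WT IgG1 so higher means slower dissociation than WT.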

T3 sequence (P12314 16-288 limits assumed): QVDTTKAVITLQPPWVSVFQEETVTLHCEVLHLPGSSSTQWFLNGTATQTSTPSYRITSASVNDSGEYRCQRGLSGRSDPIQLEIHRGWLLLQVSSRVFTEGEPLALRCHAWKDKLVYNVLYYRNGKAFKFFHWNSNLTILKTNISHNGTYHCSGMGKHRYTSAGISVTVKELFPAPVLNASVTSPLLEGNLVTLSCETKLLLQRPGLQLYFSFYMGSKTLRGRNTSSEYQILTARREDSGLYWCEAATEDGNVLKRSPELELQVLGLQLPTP
T1 sequence (P08637 17-208): as the sequence (P08637 17-208 F176V) above, with V160F counted along it

B1: G236D (antibody, human IgG1, kappa)
heavy: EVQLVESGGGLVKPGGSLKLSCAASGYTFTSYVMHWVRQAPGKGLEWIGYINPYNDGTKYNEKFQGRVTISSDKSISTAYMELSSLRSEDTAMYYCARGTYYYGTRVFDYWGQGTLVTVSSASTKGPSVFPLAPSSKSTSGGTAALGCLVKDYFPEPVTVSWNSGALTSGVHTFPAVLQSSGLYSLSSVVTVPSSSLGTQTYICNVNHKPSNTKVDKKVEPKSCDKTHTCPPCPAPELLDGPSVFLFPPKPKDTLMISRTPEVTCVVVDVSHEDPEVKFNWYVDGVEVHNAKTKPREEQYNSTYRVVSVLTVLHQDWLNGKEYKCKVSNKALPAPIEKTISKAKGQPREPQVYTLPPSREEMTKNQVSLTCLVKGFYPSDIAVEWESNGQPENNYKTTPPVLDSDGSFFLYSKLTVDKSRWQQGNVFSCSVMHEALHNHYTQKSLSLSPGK
light: DIVMTQSPATLSLSPGERATLSCRSSKSLQNVNGNTYLYWFQQKPGQSPQLLIYRMSNLNSGVPDRFSGSGSGTEFTLTISSLEPEDFAVYYCMQHLEYPITFGAGTKLEIKRTVAAPSVFIFPPSDEQLKSGTASVVCLLNNFYPREAKVQWKVDNALQSGNSQESVTEQDSKDSTYSLSSTLTLSKADYEKHKVYACEVTHQGLSSPVTKSFNRGEC
notes: HuAM4G7 anti-CD19 IgG1 (m1) with this Fc substitution, EU index; copies: 2 + 2
On to B1, for which the binding result (in [1]; in [4]; in the assay with cynoFcγRIIb [7]; in the assay with mFcγRIIb [8]; with cynoFcγRIIIa [9]; with mFcγRIV [10]) was “no binding” throughout. The “Fold vs WT IgG1” value in [2] was determined as 0.758 fold; in assay [3], 0.0211 fold; in [5], 0.167 fold; in [6] it was 1.54 fold. For the same molecule, the equilibrium dissociation constant (Kd) in assay [2] turned out to be 1130 nM; in assay [3] it was 15.6 nM; in assay [5], 3870 nM; in assay [6] it was 953 nM.

B2: S239D (antibody, human IgG1, kappa)
heavy: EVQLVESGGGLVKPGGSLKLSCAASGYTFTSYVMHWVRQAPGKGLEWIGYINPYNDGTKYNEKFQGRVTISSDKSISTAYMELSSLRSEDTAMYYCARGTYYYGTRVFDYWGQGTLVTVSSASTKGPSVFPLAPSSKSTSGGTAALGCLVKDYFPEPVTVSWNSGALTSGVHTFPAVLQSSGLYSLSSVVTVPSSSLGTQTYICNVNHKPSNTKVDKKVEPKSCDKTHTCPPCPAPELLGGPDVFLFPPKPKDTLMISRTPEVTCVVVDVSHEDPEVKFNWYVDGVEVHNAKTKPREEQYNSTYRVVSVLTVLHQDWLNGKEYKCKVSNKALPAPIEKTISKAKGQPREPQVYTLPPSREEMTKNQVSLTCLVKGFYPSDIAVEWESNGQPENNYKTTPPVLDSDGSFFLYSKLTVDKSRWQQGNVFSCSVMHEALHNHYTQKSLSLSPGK
light: B1 light
notes: as for B1
For the molecule B2, the “Fold vs WT IgG1” value in assay [1] worked out at 6.32 fold; in assay [2] it was 3.73 fold; in assay [3] it was 3.53 fold; in assay [4], 8.14 fold; in [5], 1.1 fold; in assay [6], 3.6 fold. In addition, the Kd in assay [1] stood at 214 nM; in assay [2], 230 nM; in [3], 0.0934 nM; in assay [4] it was 23.5 nM; in [5], 590 nM; in assay [6], 408 nM. Besides, the “Fold vs WT IgG1 (Kd)” value in the assay with cynoFcγRIIb [11] stood at 1.64 fold; with mFcγRIIb [12] it was 2.01 fold; with cynoFcγRIIIa [13] it was 7.58 fold; with mFcγRIV [14], 2.52 fold. Besides, the “Fold vs WT IgG1 (off-rate)” value is 1.99 fold with cynoFcγRIIb [11], 2.91 fold with mFcγRIIb [12], 2.33 fold in the assay with cynoFcγRIIIa [13] and 1.91 fold with mFcγRIV [14].

B3: A330D (antibody, human IgG1, kappa)
heavy: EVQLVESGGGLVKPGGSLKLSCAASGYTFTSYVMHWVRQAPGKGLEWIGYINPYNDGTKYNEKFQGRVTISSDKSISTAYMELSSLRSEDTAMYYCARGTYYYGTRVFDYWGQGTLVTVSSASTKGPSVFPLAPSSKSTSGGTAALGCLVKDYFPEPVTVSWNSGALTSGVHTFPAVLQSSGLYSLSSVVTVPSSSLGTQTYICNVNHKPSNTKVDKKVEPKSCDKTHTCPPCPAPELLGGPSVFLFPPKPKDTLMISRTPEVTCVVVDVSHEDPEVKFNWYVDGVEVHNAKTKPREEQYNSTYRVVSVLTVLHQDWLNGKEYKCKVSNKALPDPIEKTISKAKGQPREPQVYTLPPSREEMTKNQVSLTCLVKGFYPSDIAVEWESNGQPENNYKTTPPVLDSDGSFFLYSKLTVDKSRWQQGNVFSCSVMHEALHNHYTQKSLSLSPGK
light: B1 light
notes: as for B1
With B3, the binding result (in assay [6]; with cynoFcγRIIb [15]) was “no binding” in each case. The “Fold vs WT IgG1 (Kd)” value with mFcγRIIb [12] turned out to be 2.63 fold.

B4: L328E (antibody, human IgG1, kappa)
heavy: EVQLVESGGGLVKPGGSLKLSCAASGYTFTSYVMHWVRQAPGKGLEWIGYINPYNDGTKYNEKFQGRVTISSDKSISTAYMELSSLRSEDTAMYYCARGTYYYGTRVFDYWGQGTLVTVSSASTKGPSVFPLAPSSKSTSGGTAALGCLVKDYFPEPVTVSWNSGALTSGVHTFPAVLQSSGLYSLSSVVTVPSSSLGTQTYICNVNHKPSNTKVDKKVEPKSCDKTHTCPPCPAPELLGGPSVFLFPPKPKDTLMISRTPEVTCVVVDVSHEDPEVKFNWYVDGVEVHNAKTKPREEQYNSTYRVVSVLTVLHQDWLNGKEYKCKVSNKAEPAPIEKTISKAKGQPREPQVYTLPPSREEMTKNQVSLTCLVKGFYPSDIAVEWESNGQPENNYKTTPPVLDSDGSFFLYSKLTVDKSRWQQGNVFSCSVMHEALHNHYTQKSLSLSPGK
light: B1 light
notes: as for B1
As to B4, the binding result (in [6]; with cynoFcγRIIb [15]) was “no binding” in each case. Moreover, the “Fold vs WT IgG1 (Kd)” value with mFcγRIIb [12] was determined as 0.016 fold.

B5: A330H (antibody, human IgG1, kappa)
heavy: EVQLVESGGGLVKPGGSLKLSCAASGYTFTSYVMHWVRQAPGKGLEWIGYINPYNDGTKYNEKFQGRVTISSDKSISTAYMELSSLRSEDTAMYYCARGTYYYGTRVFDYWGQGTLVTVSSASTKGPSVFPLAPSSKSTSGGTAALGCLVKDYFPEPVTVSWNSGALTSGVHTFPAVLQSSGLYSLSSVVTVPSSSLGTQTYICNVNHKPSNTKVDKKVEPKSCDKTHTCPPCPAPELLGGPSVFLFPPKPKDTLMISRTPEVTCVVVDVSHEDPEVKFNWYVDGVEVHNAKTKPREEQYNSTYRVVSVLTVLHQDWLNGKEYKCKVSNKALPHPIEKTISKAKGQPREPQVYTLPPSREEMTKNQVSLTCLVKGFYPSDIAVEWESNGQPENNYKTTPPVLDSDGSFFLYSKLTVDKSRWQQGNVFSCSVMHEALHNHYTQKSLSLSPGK
light: B1 light
notes: as for B1
Consider B5, for which the binding result (in [6]; with cynoFcγRIIb [15]) was “no binding” each time. Further, the “Fold vs WT IgG1 (Kd)” value in the assay with mFcγRIIb [12] came to 0.013 fold.

B6: L234W/G236D/S239E/S267E (antibody, human IgG1, kappa)
heavy: EVQLVESGGGLVKPGGSLKLSCAASGYTFTSYVMHWVRQAPGKGLEWIGYINPYNDGTKYNEKFQGRVTISSDKSISTAYMELSSLRSEDTAMYYCARGTYYYGTRVFDYWGQGTLVTVSSASTKGPSVFPLAPSSKSTSGGTAALGCLVKDYFPEPVTVSWNSGALTSGVHTFPAVLQSSGLYSLSSVVTVPSSSLGTQTYICNVNHKPSNTKVDKKVEPKSCDKTHTCPPCPAPEWLDGPEVFLFPPKPKDTLMISRTPEVTCVVVDVEHEDPEVKFNWYVDGVEVHNAKTKPREEQYNSTYRVVSVLTVLHQDWLNGKEYKCKVSNKALPAPIEKTISKAKGQPREPQVYTLPPSREEMTKNQVSLTCLVKGFYPSDIAVEWESNGQPENNYKTTPPVLDSDGSFFLYSKLTVDKSRWQQGNVFSCSVMHEALHNHYTQKSLSLSPGK
light: B1 light
notes: HuAM4G7 anti-CD19 IgG1 (m1) with these Fc substitutions, EU index; copies: 2 + 2
B6: in assay [2], the “Fold vs WT IgG1” value was 5.69 fold and binding was characterised by a dissociation constant (Kd) of 151 nM. Moreover, in assay [6], the “Fold vs WT IgG1” value is 11.4 fold and the Kd is 129 nM. Further, the binding result with cynoFcγRIIb [15] is “no binding”. The “Fold vs WT IgG1 (Kd)” value with mFcγRIIb [12] was determined as 0.029 fold.
